Measurements published in article PMC10213058.

Molecular target: mouse pendrin (SLC26A4), full length (mouse)
Experiment: cryo-EM structure; single-particle cryo-EM of purified pendrin in 0.02% GDN, about 1.7 mg/mL, pH 8.0-8.3; samples in 150 mM NaCl (pendrin-Cl), NaHCO3 (pendrin-HCO3), Cl/HCO3, Cl/I and HCO3/I; symmetric and asymmetric homodimers

stoichiometry N: 2
Substance: mouse pendrin (SLC26A4), full length (natural protein)
